In the data set the target is BNP (brain natriuretic peptide) (UniProt P16860 P16860:103-134). Description: FRET recovery from carboxylated graphene oxide quencher (40 ug/ml), 100 nmol/L aptamer, pH 7.2-7.4, room temperature, 35 min. Conditions: label: 5'-FAM. An excerpt:
The signal response relationship between BNP concentration and fluorescence intensity obtained by detecting BNP in the present invention, its specific detection steps are as follows: [0080] (1) Blank control experiment: individually detect the fluorescence intensity of 100 nmol/L aptamer solution, and set the excitation wavelength as 492 nm, the emission wavelength as 519 nm, and the emission spectrum detection range as 505-610 nm, then use the obtained results as controls. [0081] (2) Mix 100 nmol/L of aptamer solution with 40 ug/ml of carboxylated graphene oxide solution by equal volume, and control the pH value of the solution at 7.2-7.4, and then leave it at room temperature for about 20 min. Then add BNP solution having a series of concentration gradients, respectively, leave it at room temperature for about 35 min, next take out an appropriate amount of mixed solution for fluorescence detection, and record fluorescence spectra at different concentrations. […] With the increase of the BNP concentration, the fluorescence intensity of the solution gradually increases. [0082]

We go through 1 molecule from patent publication US20240192201, “BRAIN NATRIURETIC PEPTIDE APTAMER FLUORESCENCE DETECTION DEVICE BASED ON SMART PHONE AND SENSING METHOD OF SAME” (TianJin University, published 2024).

Chain of BNP (brain natriuretic peptide) (P16860 103-134, one chain of several): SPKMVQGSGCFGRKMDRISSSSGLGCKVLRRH

B1: FAM-labelled BNP aptamer (ssDNA)
DNA: TTTTTTTATACGGGAGCCAACACCACCTCTCACATTATATTGTGAATACTTCGTGCTGTTTAGAGCAGGTGTGACGGAT
Regarding B1, the binding result was “binds”.
